The values that follow come from PMC7293217, “TECPR1 promotes aggrephagy by direct recruitment of LC3C autophagosomes to lysosomes” (Nature Communications, 2020).

The assay deals with T1, TECPR1 (purified, on GUVs) (human, UniProt Q7Z6L1 1-1165).
T1 construct: TECPR1, human, full-length cDNA of isoform 1, cloned into pCoofy29; TECPR1 could be labeled on native cysteines (Alexa Fluor 488 or CF405M); also called recombinant TECPR1; source: High Five insect cells, purified (Ni-NTA, PreScission, Superdex 200); not shown: His6, N-terminal, cleaved; MBP, N-terminal, cleaved
T1 sequence (looked up): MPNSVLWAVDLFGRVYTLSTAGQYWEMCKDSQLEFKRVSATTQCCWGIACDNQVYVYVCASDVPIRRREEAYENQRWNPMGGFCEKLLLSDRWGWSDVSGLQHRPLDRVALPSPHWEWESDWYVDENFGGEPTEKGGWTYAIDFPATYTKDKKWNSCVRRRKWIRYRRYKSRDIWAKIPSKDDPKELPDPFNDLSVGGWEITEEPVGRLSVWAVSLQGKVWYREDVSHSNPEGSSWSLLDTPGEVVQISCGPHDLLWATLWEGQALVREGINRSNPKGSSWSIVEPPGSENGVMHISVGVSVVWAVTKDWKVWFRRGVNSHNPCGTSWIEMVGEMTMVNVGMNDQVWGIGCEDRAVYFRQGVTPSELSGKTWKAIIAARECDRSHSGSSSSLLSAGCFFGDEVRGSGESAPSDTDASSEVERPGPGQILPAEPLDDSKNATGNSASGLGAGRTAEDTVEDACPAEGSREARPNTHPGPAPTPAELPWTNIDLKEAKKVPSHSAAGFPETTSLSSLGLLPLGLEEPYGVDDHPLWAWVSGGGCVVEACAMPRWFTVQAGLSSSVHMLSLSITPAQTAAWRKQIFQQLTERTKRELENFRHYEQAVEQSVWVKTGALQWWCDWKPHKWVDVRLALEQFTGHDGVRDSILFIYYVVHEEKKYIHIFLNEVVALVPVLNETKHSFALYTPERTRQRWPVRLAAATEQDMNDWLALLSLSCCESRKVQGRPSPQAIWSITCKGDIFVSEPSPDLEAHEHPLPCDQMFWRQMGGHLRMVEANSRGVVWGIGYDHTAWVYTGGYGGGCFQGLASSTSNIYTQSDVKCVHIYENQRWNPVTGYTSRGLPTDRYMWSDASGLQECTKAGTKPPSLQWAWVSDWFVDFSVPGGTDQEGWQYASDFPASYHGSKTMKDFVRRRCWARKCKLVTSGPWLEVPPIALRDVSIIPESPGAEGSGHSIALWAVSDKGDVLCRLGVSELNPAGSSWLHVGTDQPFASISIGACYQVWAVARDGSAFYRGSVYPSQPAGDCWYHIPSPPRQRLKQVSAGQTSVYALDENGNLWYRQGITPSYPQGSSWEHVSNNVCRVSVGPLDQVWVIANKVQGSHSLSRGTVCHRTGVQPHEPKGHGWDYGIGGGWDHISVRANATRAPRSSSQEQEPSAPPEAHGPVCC
Briefly: recruitment of SUVs to GUVs seen by fluorescence microscopy; reconstitution with purified proteins: Alexa488-LC3C conjugated to SUVs coincubated with GUVs decorated with TECPR1; GUVs without TECPR1 as control. The settings on record: both partners purified.

B1: Alexa488-labeled LC3C conjugated to SUVs (natural protein, human, UniProt Q9BXW4 1-126, looked up)
chain: MPPPQKIPSVRPFKQRKSLAIRQEEVAGIRAKFPNKIPVVVERYPRETFLPPLDKTKFLVPQELTMTQFLSIIRSRMVLRATEAFYLLVNNKSLVSMSATMAEIYRDYKDEDGFVYMTYASQETFG
modifications: Alexa Fluor 488 C5 maleimide on the introduced N-terminal cysteine; conjugated to SUVs
For the molecule B1, the binding result is listed as “binds”.
